Data as given in patent US20150307846A1, “GROWTH FACTOR COCKTAIL TO ENHANCE OSTEOGENIC DIFFERENTIATION OF MESENCHYMAL CELLS” (University of Pennsylvania, priority 2012, published 2015).

System: human periosteum derived cells (hPDCs)
Experiment: Gene expression of bone markers in hPDCs in 2D culture (Taqman PCR)
Type: cell-based
Details: two stage protocol, six factors minus one, 4 days
Procedure: Same experimental design as in A. C) Identification of factors involved in osteoblast maturation. hPDCs were treated with OM and TGFβ1 for 6 days, followed by stimulation with GM (negative control), GM containing six factors or GM supplement with six minus one factor for 4 days. The factors are ascorbic acid (Asc. Ac., 57 μM), TNFα (50 ng/ml), IL6 (10 ng/ml), EGF (20 ng/ml), Ca (6 mM) and Pi (4 mM). To evaluate osteoblast maturation, gene expression of RUNX2, OSX, DLX5, iBSP, OC and RANKL is measured with Taqman PCR. […] Gene expression is expressed as fold increase as compared to the GM condition. […] Gene expression is expressed as fold increase as compared to hPDCs cultured in OM/TGFβ1 (n=3, error bars: standard deviations, *p≦00.05, Mann-Whitney U test).
Cell culture. […] For in vitro osteogenic differentiation assays, passage 6 to passage 9 hPDCs (pool of four different donors) were seeded at 3000 cells/cm^2 in either 96-well plates to assess proliferation and alkaline phosphatase activity or in the middle eight wells of a 24-well plate for quantifying gene expression. […]
Quantitative PCR. […]

B1: EGF: growth factor ligand, 20 ng/ml (protein, UniProt P01133 23-1207, looked up)
Pro-epidermal growth factor: PQHWSCPEGTLAGNGNSTCVGPAPFLIFSHGNSIFRIDTEGTNYEQLVVDAGVSVIMDFHYNEKRIYWVDLERQLLQRVFLNGSRQERVCNIEKNVSGMAINWINEEVIWSNQQEGIITVTDMKGNNSHILLSALKYPANVAVDPVERFIFWSSEVAGSLYRADLDGVGVKALLETSEKITAVSLDVLDKRLFWIQYNREGSNSLICSCDYDGGSVHISKHPTQHNLFAMSLFGDRIFYSTWKMKTIWIANKHTGKDMVRINLHSSFVPLGELKVVHPLAQPKAEDDTWEPEQKLCKLRKGNCSSTVCGQDLQSHLCMCAEGYALSRDRKYCEDVNECAFWNHGCTLGCKNTPGSYYCTCPVGFVLLPDGKRCHQLVSCPRNVSECSHDCVLTSEGPLCFCPEGSVLERDGKTCSGCSSPDNGGCSQLCVPLSPVSWECDCFPGYDLQLDEKSCAASGPQPFLLFANSQDIRHMHFDGTDYGTLLSQQMGMVYALDHDPVENKIYFAHTALKWIERANMDGSQRERLIEEGVDVPEGLAVDWIGRRFYWTDRGKSLIGRSDLNGKRSKIITKENISQPRGIAVHPMAKRLFWTDTGINPRIESSSLQGLGRLVIASSDLIWPSGITIDFLTDKLYWCDAKQSVIEMANLDGSKRRRLTQNDVGHPFAVAVFEDYVWFSDWAMPSVMRVNKRTGKDRVRLQGSMLKPSSLVVVHPLAKPGADPCLYQNGGCEHICKKRLGTAWCSCREGFMKASDGKTCLALDGHQLLAGGEVDLKNQVTPLDILSKTRVSEDNITESQHMLVAEIMVSDQDDCAPVGCSMYARCISEGEDATCQCLKGFAGDGKLCSDIDECEMGVPVCPPASSKCINTEGGYVCRCSEGYQGDGIHCLDIDECQLGEHSCGENASCTNTEGGYTCMCAGRLSEPGLICPDSTPPPHLREDDHHYSVRNSDSECPLSHDGYCLHDGVCMYIEALDKYACNCVVGYIGERCQYRDLKWWELRHAGHGQQQKVIVVAVCVVVLVMLLLLSLWGAHYYRTQKLLSKNPKNPYEESSRDVRSRRPADTEDGMSSCPQPWFVVIKEHQDLKNGGQPVAGEDGQAADGSMQPTSWRQEPQLCGMGTEQGCWIPVSSDKGSCPQVMERSFHMPSYGTQTLEGGVEKPHSLLSANPLWQQRALDPPHQMELTQ
modifications: Pro-epidermal growth factor
notes: growth factor ligand, 20 ng/ml
With B1 the “RANKL expression in medium devoid of the factor” value was “lower levels” and the “role in DLX5 transcription” value was “required”.
